Test results reported in article PMC4884786.

Target: Fbxl17 (UniProt Q9UF56)
Experiment: HA-Sufu IP, Myc-Fbxl17 blot
Conditions: reference: Sufu wild type; sites S342,S346

Sufu (from UniProt Q9UMX1) Sufu S342A/S346A
binding against the reference: stronger
